Measured values as given in paper PMC3114554.

Key:
Assay in all cases: FRET or BRET
[1] = target: CFP-tagged KCNQ3 (human) (UniProt O43525)
[2] = target: CFP-tagged KCNQ2 (human)
[3] = target: CFP-tagged KCNQ4 (human) (UniProt P56696)
Sequence of UniProt P56696 (P56696 whole entry): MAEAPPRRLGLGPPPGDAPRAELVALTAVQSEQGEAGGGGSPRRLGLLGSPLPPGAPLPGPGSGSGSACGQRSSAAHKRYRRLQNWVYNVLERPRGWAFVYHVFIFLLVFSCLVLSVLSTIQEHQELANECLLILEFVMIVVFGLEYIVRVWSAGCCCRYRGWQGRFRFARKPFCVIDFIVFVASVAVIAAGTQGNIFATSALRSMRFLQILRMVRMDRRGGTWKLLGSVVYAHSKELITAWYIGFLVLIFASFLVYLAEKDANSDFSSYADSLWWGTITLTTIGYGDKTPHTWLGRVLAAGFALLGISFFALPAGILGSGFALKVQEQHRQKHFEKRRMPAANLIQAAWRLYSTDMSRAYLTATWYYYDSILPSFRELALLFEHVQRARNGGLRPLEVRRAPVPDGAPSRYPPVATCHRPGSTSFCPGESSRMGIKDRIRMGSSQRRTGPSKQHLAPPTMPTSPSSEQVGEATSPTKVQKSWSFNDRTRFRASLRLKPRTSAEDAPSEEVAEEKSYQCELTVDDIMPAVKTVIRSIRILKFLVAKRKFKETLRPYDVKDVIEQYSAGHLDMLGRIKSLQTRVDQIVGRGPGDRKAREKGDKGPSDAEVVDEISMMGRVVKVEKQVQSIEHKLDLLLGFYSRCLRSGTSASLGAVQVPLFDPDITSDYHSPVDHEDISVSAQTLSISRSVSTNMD

Sequence of UniProt O43525 (O43525 whole entry): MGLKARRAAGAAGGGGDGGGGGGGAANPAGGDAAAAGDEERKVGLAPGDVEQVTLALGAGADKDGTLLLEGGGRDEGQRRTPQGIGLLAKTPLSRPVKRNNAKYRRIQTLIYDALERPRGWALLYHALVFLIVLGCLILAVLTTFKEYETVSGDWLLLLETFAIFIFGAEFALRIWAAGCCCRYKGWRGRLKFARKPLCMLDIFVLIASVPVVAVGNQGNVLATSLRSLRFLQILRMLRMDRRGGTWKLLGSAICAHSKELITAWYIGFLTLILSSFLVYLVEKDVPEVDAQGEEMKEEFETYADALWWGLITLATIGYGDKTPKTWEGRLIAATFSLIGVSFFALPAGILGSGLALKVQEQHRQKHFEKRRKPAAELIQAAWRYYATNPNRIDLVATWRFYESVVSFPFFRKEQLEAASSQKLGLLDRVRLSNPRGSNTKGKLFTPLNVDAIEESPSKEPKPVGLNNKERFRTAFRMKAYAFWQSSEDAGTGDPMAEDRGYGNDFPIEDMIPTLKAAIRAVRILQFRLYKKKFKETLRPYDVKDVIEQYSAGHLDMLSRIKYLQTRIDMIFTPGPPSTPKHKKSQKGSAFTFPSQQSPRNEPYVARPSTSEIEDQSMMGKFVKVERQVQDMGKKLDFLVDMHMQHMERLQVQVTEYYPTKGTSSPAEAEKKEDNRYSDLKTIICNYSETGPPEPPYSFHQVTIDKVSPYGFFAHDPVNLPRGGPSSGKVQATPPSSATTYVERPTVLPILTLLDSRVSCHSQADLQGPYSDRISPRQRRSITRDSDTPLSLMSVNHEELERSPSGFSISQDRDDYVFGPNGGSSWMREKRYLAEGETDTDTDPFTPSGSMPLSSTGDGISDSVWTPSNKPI

“YFP-tagged ΔA-AKAP79 (from UniProt P24588 1-427) (natural protein)” was tested, and the FRET efficiency [1] was 13%, the FRET efficiency [2] was 17% and the FRET efficiency [3] was 16%.
